Data taken from patent US20110086795A1.

Target: Myc-tagged Slo1QEERL
Test: cell-based or functional assay

HA-tagged Slo1VEDEC
reduction in mean surface expression of Slo1 (cell-surface biotinylation, densitometry): 50%
